Measured values as given in patent US20130143948A1, “MST1 AS A PROGNOSTIC BIOMARKER AND THERAPEUTIC TARGET IN HUMAN CANCER” (CEDARS-SINAI MEDICAL CENTER, priority 2010, published 2013).

Columns and labels:
LNCaP/Vector cells = assay: BrdU incorporation cell proliferation assay, LNCaP/Vector; type: cell-based; details: Dox 4 μg/ml, 24 hr
Description: For in vitro kinase assay, the recombinant, pre-activated MST1 protein kinase was incubated with purified GST-AR DBD/HR fusion protein and 10 μCi ^32P-γ-ATP or 100 μM unlabeled-ATP. The reaction mixture was resolved on SDS-PAGE and autoradiographed. Cell-Death ELISA and BrdU incorporation assays were performed to assess cell death and cell proliferation, respectively, according to the manufacturer's instructions (Roche Molecular Diagnostics).

[1] = tested on: C4-2/HA-MST1 tumor xenografts; assay: Subcutaneous prostate cancer xenograft in athymic nude mice; type: in vivo
Description: C4-2/Vector or C4-2/HA-MST1 cells mixed with Matrigel (1-to-1 ratio) were inoculated subcutaneously in athymic nude mice (CD-1 nu/nu; Charles River Laboratories, Wilmington, Mass.). 1×10^6 cells/100 μl were used per injection per site (right and left flanks). Mice were treated with Dox (0.5 mg/ml) in drinking water to induce MST1 expression for 12 weeks. Institutional Animal Care and Use Committee (IACUC) policies and guidelines were strictly applied. Tumor volumes were assessed by caliper according to procedures described previously (20). Mice were sacrificed and evaluated for tumor growth anatomically and tumor tissues extracted from mice were fixed in 10% formaldehyde for the construction of histological sections or “snap” frozen at −80° C. The expression of MST1 was verified in histological sections by immunohistochemistry using anti-HA antibody.

[2] = C4-2/HA-MST1 vs C4-2/Vector, Dox in drinking water, 12 weeks

Molecule | effect on cell growth (LNCaP/Vector cells) | mice that developed tumors ([1]; 12 weeks after subcutaneous inoculation, 10 mice per group) | suppression of tumor growth [1, 2] [fold] | suppression of tumorigenic rates [1, 2] [fold]
C[C@H]1c2cccc(O)c2C(=O)C2=C(O)[C@]3(O)C(=O)C(C(N)=O)=C(O)[C@@H](N(C)C)[C@@H]3[C@@H](O)[C@@H]21 [Dox, doxycycline] | no effect |  |  | 
MST1: serine-threonine kinase MST1 (mammalian sterile STE20-like kinase 1), enforced Dox-inducible HA-tagged expression in tumor cells (protein, UniProt Q13043 1-487, looked up, HA tag, serine-threonine kinase MST1 (mammalian sterile STE20-like kinase 1), enforced Dox-inducible HA-tagged expression in tumor cells) Serine/threonine-protein …: METVQLRNPPRRQLKKLDEDSLTKQPEEVFDVLEKLGEGSYGSVYKAIHKETGQIVAIKQVPVESDLQEIIKEISIMQQCDSPHVVKYYGSYFKNTDLWIVMEYCGAGSVSDIIRLRNKTLTEDEIATILQSTLKGLEYLHFMRKIHRDIKAGNILLNTEGHAKLADFGVAGQLTDTMAKRNTVIGTPFWMAPEVIQEIGYNCVADIWSLGITAIEMAEGKPPYADIHPMRAIFMIPTNPPPTFRKPELWSDNFTDFVKQCLVKSPEQRATATQLLQHPFVRSAKGVSILRDLINEAMDVKLKRQESQQREVDQDDEENSEEDEMDSGTMVRAVGDEMGTVRVASTMTDGANTMIEHDDTLPSQLGTMVINAEDEEEEGTMKRRDETMQPAKPSFLEYFEQKEKENQINSFGKSVPGPLKNSSDWKIPQDGDYEFLKSWTVEDLQKRLLALDPMMEQEIEEIRQKYQSKRQPILDAIEAKKRRQQNF |  | 2 out of 10 | 35 | 4
